Measurements: IntAct's records for PubMed 19846556

B1: Peroxisome proliferator-activated receptor gamma coactivator 1-alpha (Homo sapiens), Q9UBK2 (parent)
chain: MAWDMCNQDSESVWSDIECAALVGEDQPLCPDLPELDLSELDVNDLDTDSFLGGLKWCSDQSEIISNQYNNEPSNIFEKIDEENEANLLAVLTETLDSLPVDEDGLPSFDALTDGDVTTDNEASPSSMPDGTPPPQEAEEPSLLKKLLLAPANTQLSYNECSGLSTQNHANHNHRIRTNPAIVKTENSWSNKAKSICQQQKPQRRPCSELLKYLTTNDDPPHTKPTENRNSSRDKCTSKKKSHTQSQSQHLQAKPTTLSLPLTPESPNDPKGSPFENKTIERTLSVELSGTAGLTPPTTPPHKANQDNPFRASPKLKSSCKTVVPPPSKKPRYSESSGTQGNNSTKKGPEQSELYAQLSKSSVLTGGHEERKTKRPSLRLFGDHDYCQSINSKTEILINISQELQDSRQLENKDVSSDWQGQICSSTDSDQCYLRETLEASKQVSPCSTRKQLQDQEIRAELNKHFGHPSQAVFDDEADKTGELRDSDFSNEQFSKLPMFINSGLAMDGLFDDSEDESDKLSYPWDGTQSYSLFNVSPSCSSFNSPCRDSVSPPKSLFSQRPQRMRSRSRSFSRHRSCSRSPYSRSRSRSPGSRSSSRSCYYYESSHYRHRTHRNSPLYVRSRSRSPYSRRPRYDSYEEYQHERLKREEYRREYEKRESERAKQRERQRQKAIEERRVIYVGKIRPDTTRTELRDRFEVFGEIEECTVNLRDDGDSYGFITYRYTCDAFAALENGYTLRRSNETDFELYFCGRKQFFKSNYADLDSNSDDFDPASTKSKYDSLDFDSLLKEAQRSLRR
partner: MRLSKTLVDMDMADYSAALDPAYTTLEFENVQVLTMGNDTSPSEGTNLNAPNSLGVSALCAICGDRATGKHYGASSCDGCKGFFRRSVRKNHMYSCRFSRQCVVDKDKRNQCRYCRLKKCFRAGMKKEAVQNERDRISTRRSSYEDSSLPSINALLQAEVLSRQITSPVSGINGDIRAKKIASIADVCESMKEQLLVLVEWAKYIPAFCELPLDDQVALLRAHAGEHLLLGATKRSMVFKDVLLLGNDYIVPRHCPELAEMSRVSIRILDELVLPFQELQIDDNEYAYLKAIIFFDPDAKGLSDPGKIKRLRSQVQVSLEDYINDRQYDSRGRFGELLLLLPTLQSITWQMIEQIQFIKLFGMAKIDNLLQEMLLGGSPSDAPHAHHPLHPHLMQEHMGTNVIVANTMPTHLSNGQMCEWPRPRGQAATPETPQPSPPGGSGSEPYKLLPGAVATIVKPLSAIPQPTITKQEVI

How the values were obtained:
[1] = variants of: B1; settings: with hnf4a_human HNF4A
[2] = variants of: B1; settings: with hnf4a_human HNF4A; remark: listed apart in the source

Question: What does the source list for V91A;L92A;L147A;L148A?
Answer: effect of a mutation on the interaction [1]: decreasing interaction; effect of a mutation on the interaction [2]: decreasing interaction

Question: Which results are given for V91A;L92A;L147A;L148A;Y213A;L214A?
Answer: effect of a mutation on the interaction [1]: disrupting interaction; effect of a mutation on the interaction [2]: disrupting interaction

Question: Which results are given for V91A;L92A;Y213A;L214A?
Answer: effect of a mutation on the interaction [1]: decreasing interaction; effect of a mutation on the interaction [2]: decreasing interaction

Question: Which “effect of a mutation on the interaction” value [1] does the source give for L147A;L148A;Y213A;L214A here?
Answer: The value was “disrupting interaction”.

Question: And the “effect of a mutation on the interaction” value [2]?
Answer: The value was “disrupting interaction”.

Question: For L147A;L148A, which “effect of a mutation on the interaction” value [1] is on record?
Answer: The value was “decreasing interaction”.

Question: For V91A;L92A, which “effect of a mutation on the interaction” value [2] is on record?
Answer: The value was “decreasing interaction”.

Question: With Y213A;L214A as the variant, how does the “effect of a mutation on the interaction” value [1] read?
Answer: Its value is “decreasing interaction”.
